The values that follow come from patent publication US20260008852A1 (CRYSTAL BIOSCIENCE, published 2026).

The chains are these.
B1: 40633p1.1.A6 scFv-Fc (scFv, V domains shown)
VH: EVQLLESGGGLVQPGGSLRLSCAASGFSFSNYDMSWVRQAPGKGLEWVAGIRSGSRTYYADSVKGRFTISRDNSKNTLYLQMNSLRAEDTATYYCGRYFNMDVWGQGTTVTVSS
VL: QSVLTQPPSASGTPGQRVTISCSGSTFNIGTNLVHWYQQLPGTAPKLLIYLTDRRPSGVPDRFSGSKSGTSASLAISGLQSEDEANYYCATWDDSLNSFLFGGGTKLTVL
B2: 40633p1.1.A11 scFv-Fc (scFv, V domains shown)
VH: EVQLLESGGDLVQPGGSLRLSCAASGFTFNTYWMNWVRQAPGKGLEWVAGINSKGGVTYYADSVKGRFTISRDNSKNTLYLQMNSLRAEDTAVYYCADWNDYDIMDVWGQGTTVTVSS
VL: QSVLTQPPSASGTPGQTITISCSGSSSNVGRRTVNWYQQLPGTAPKLLIYTNAQRPSGVPDRFSGSKSGTSASLAISGLQSEDEADYYCATWDDSLNAWVFGGGTKLTVL
B3: 40633p1.1.E4 scFv-Fc (scFv, V domains shown)
VH: EVQLLESGGGLVQPGGSLRLSCAASGFTFSSYWMSWVRQAPGKGLEWVSGISSSGSATYYADSVKGRFTISRDNSKNTLYLQMNSLRAEDTAVYYCARWNDYDIMDVWGQGTTVTVSS
VL: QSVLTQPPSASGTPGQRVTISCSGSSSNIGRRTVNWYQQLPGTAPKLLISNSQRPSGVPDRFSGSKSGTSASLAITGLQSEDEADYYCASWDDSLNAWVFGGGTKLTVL
notes: Tested as scFv-Fc supernatant
B4: 40633p1.1.B3 scFv-Fc (scFv, V domains shown)
VH: EVQLLESGGGLVQPGGSLRLSCAASGFTVSYYGMSWVRQAPGKGLEWVSAIKQDGSEKYYADSVKGRFTISRDNSKNTLYLQMNSLRAEDTAVYYCARHWNDYSNAMNVWGQGTTVTVSS
VL: QSVLTQPPSASGTPGQRVTISCSGSTSNIGRESVYWYQQLPGTAPKLLIYTIDQRPSGVPDRFSGSKSGTSASLAISGLQSEDEADYYCGTWDDSLNAWVFGGGTKLTVL
notes: Tested as scFv-Fc supernatant
B5: 40633p1.1.C11 scFv-Fc (scFv, V domains shown)
VH: EVQLLESGGGLVQPGGSLRLSCAASGFTFSSYWMSWVRQAPGKGLEWVAGINRNGGTTYYADSVKGRFTISRDNSKNTLYLQMNSLRAEDTAVYYCARWNDYDIMDVWGQGTTVTVSS
VL: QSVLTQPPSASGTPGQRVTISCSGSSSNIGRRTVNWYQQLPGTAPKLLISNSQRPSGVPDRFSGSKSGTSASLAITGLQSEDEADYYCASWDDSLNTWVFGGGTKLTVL
notes: Tested as scFv-Fc supernatant
B6: 40633p1.2.D7 scFv-Fc (scFv, V domains shown)
VH: EVQLLESGGSLVQPGGSLRLSCAASGFTFSSYWMSWVRQAPGKGLEWVSGISSSGSATYYADSVKGRFTISRDNSKNTLYLQMNSLRAEDTAVYYCARWNDYDIMDVWGQGTTVTVSS
VL: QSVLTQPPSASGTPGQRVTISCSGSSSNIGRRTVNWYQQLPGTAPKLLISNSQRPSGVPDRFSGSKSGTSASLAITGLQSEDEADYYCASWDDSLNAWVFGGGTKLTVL
notes: Tested as scFv-Fc supernatant
B7: 40633p1.2.A10 scFv-Fc (scFv, V domains shown)
VH: EVQLLESGGGLVQPGGSLRLSCAASGFTVSYYGMSWVRQAPGKGLEWVSVIKQDGSEEYYADSVKGRFTISRDNSKNTLYLQMNSLRAEDTAVYYCARHWNDYSNGMNVWGQGTTVTVSS
VL: QSVLTQPPSASGTPGQRVTISCSGSTSNVGDRYVYWYQQLPGTAPKLLIYLDDQRPSGVPDRFSGSKSGTSASLAISGLQSEDEADYYCASWDASLNGWVFGGGTKLTVL
notes: Tested as scFv-Fc supernatant
B8: 40633p1.2.F3 scFv-Fc (scFv, V domains shown)
VH: EVQLLESGGGLVQPGGSLRLSCAASGFTVSYYGMSWVRQAPGKGLEWVSVIKQDGSEEYYADSVKGRFTISRDNSKNTLYLQMNSLRAEDTAVYYCARHWNDYSNGMNVWGQGTTVTVSS
VL: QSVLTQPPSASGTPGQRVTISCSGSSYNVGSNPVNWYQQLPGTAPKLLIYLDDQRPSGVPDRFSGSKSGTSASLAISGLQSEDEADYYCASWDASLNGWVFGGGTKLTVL
notes: Tested as scFv-Fc supernatant
B9: 40633p1.2.E1 scFv-Fc (scFv, V domains shown)
VH: EVQLLESGRGLVQPGGSLRLSCAASGFTVSYYGMSWVRQAPGKGLEWVSVIKQDGSEEYYADSVKGRFTISRDNSKNTLYLQMNSLRAEDTAVYYCARHWNDYSNGMNVWGQGTTVTVSS
VL: QSVLTQPPSASGTPGQRVTISCSGSTSNVGDRYVYWYQQLPGTAPKLLIYLDDQRPSGVPDRFSGSKSGTSASLAISGLQSEDEADYYCASWDASLNGWVFGGGTKLTVL
notes: Tested as scFv-Fc supernatant
B10: 40633p1.1.G11 scFv-Fc (scFv, V domains shown)
VH: EVQLLESGGGLVQPGGSLRLSCAASGFTVSYYGMSWVRQAPGKGLEWVSVIKQDGSEEYYADSVKGRFTISRDNSKNTLYLQMNSPRAEDTAVYYCARHWNDYSNGMNVWGQGTTVTVSS
VL: QSVLTQPPSASGTPGQRVTISCSGSTSNVGDRYVYWYQQLPGTAPKLLIYLDDQRPSGVPDRFSGSKSGTSASLAISGLQSEDEADYYCASWDASLNGWVFGGGTKLTVL
notes: Tested as scFv-Fc supernatant
B11: 40633p1.2.C3 scFv-Fc (scFv, V domains shown)
VH: EVQLLESGGGLVQPGGSLRLSCAASGFTVSYYGMSWVRQAPGKGLEWVSAIKQDGSEKYYADSVKGRFTISRDNSKNTLYLQMNSLRAEDTAVYYCARHWNDYSNAMNVWEQGTTVTVSS
VL: QSVLTQPPSASGTPGQRVTISCSGSNSNVGGNYVSWYQQLPGTAPKLLIYRNSQRPSGVPDRFSGSKSGTSASLAISGLQSEDEAVYYCASWDASLNGWVFGGGTKLTVL
notes: Tested as scFv-Fc supernatant
B12: 40633p1.1.A7 scFv-Fc (scFv, V domains shown)
VH: EVQLLESGGGLVQPGGSLRLSCAASGFTVSYYGMSWVRQAPGKGLEWVSAIKQDGSEKYYADSVKGRFTISRDNSKNTLYLQMNSLRAEDTAVYYCARHWNDYSNAMNVWGQGTTVTVSS
VL: QSVLTQPPSASGTPGQRVTISCSGSTSNIGRESVYWYQQLPGTAPKLLIYTIDQRPSGVPDRFSGSKSGTSASLAISGLQSEDEAVYYCASWDASLNGWVFGGGTKLTVL
notes: Tested as scFv-Fc supernatant
B13: 40579p1.H6 scFv-Fc (scFv, V domains shown)
VH: EVQLLESGGGLVQPGGSLRLSCAASGFTVNNAWMSWVRQAPGKGLEWVSAISYGGSIYYADSVKGRFTISRDNSKNTLYLQMNSLRAEDTAVYYCAKHRSTTYNGMDVWGQGTTVTVSS
VL: EIVLTQSPGTLSLSPGERATLSCRASQSVGSFLAWYQQKPGQAPRLLIYGANTRAAGIPDRFRGSGNGTDFTLTISSLQSEDFAVYYCQQYYDWPPLTFGGGTKVEIK
B14: 40633p1.1.B12 scFv-Fc (scFv, V domains shown)
VH: EVQLLESGGGLLQPGGSLRLSCAASGFSFSSYGMHWVRQAPGKGLEWVAAINSDGSRIYYADSVKGRFTISRDNSKNTLYLQMNSLRAEDTAVYYCTKYYYHYAMDVWGQGTTVTVSS
VL: QSVLTQPPSASGTPGQRVTISCSGSRSDIGATTVNWYQQLPGTAPKLLTYQSHLRPSGVPDRFSGSKSGTSASLAISGLQSEDEADYYCASWDASLNTWVFGGGTKLTVL
B15: 40579p1.H7 scFv-Fc (scFv, V domains shown)
VH: EVQLLESGGDLVQPGGSLRLSCAASGFNFSSYWMSWVRQAPGKGLEWVSGISISYGGNAYYADSVKGRFTVSRDNSKNTLYLQMNSLRAEDTAVYYCGRDRSPYQYRSMDVWGQGTTVTVSS
VL: EIVLTQSPGTLSLSPGERATLSCRASQSIRSDLAWYQQKPGQAPRLLIYGASSRATGIPARFSGSGSGTEFTLTISSLQSEDFAVYYCQQYNNWPPLTFGGGTKVEIK
notes: Tested as scFv-Fc supernatant

As a reminder, the Kd is a measure of binding affinity in units of concentration. For orientation: kon means the rate constant with which the complex forms. Read a high kon as fast association. What is called koff is the first-order rate constant of dissociation. Low values mean slow dissociation, high ones fast dissociation.

This assay deals with T1, his-tagged B7-H3 (UniProt Q5ZPR3-2 29-245, limits assumed).
T1 construct: also called CD276; not shown: His tag
T1 sequence (looked up): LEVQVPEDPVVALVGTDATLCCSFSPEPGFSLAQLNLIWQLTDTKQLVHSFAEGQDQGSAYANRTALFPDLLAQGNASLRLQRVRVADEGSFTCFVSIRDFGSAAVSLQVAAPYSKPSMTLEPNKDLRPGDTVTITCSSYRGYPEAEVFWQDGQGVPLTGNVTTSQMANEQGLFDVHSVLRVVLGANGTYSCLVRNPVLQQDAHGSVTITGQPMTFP
Kind of assay: SPR, Carterra LSA; binder captured by anti-human Fc, his-tagged B7-H3 injected. How it is done:
Binding affinities of anti-B7-H3 antibodies to B7-H3 were measured by Surface Plasmon Resonance (SPR) on a Carterra LSA instrument. Goat anti-human Fc antibody was amine coupled to a HC30M chip. ScFv-Fc supernatants were diluted 30-fold with HBSTE and were captured by the anti-human Fc coupled HC30M chip. A 1:2 dilution series of his-tagged B7-H3, starting at 400 nM, was injected onto the chip for binding. Data was analyzed using the Carterra TM Kinetics software.
A general note: SPR reads the build-up and loss of mass on a sensor chip optically.
B1 yielded a Kd of 1 nM and a kon of 166000 M⁻¹ s⁻¹.

As for B2, the dissociation constant Kd was found to be 17.4 nM, the koff is 0.01 s⁻¹ and the kon was found to be 714000 M⁻¹ s⁻¹.

For the molecule B3, binding was characterised by a dissociation constant (Kd) of 3.95 nM and the kon stood at 523000 M⁻¹ s⁻¹.

Molecule B4 returned a Kd of 6.42 nM and an on-rate constant (kon) of 360000 M⁻¹ s⁻¹.

Take B5: binding was characterised by a dissociation constant (Kd) of 1.03 nM and the kon was found to be 481000 M⁻¹ s⁻¹.

Consider B6, for which the equilibrium dissociation constant (Kd) came to 5.69 nM and the association rate constant (kon) turned out to be 402000 M⁻¹ s⁻¹.

In turn, B7 returned a dissociation constant Kd of 1.44 nM and a kon of 422000 M⁻¹ s⁻¹.

In the case of B8, binding was characterised by a dissociation constant (Kd) of 27.6 nM, the koff turned out to be 0.01 s⁻¹ and the kon stood at 307000 M⁻¹ s⁻¹.

With B9, binding was put at a Kd of 8 nM and the association rate constant (kon) was found to be 124000 M⁻¹ s⁻¹.

Regarding B10, the Kd amounted to 1.48 nM and the kon came out at 434000 M⁻¹ s⁻¹.

Molecule B11 showed a dissociation constant (Kd) of 20.7 nM and a kon of 33500 M⁻¹ s⁻¹.

With B12, binding was put at a Kd of 3.62 nM and the association rate constant (kon) came out at 371000 M⁻¹ s⁻¹.

In turn, B13 yielded a Kd of 7.72 nM and an on-rate constant (kon) of 252000 M⁻¹ s⁻¹.

The molecule B14 registered a Kd of 20.2 nM, a koff of 0.01 s⁻¹ and a kon of 349000 M⁻¹ s⁻¹.

In the case of B15, the Kd stood at 5.57 nM and the kon is 281000 M⁻¹ s⁻¹.
